Tests used:
[1] = target: H3(1-28)K9me3K18ac histone peptide (UniProt P68431 2-29, trimethyl-lysine at K9; acetyl-lysine at K18); assay: ITC
[2] = target: H3(1-28) with acetylated K18 (UniProt P68431 2-29, acetyl-lysine at K18); assay: ITC

fold enhancement of binding over unmodified H3(1-28) [1]: 3.5 fold
fold enhancement of binding over unmodified H3(1-28) [2]: 2.3 fold
B1: TRIM33 PHD-Bromo cassette (domain or fragment)
chain: DDDPNEDWCAVCQNGGDLLCCEKCPKVFHLTCHVPTLLSFPSGDWICTFCRDIGKPEVEYDCDNLQHSKKGKTAQGLSPVDQRKCERLLLYLYCHELSIEFQEPVPASIPNYYKIIKKPMDLSTVKKKLQKKHSQHYQIPDDFVADVRLIFKNCERFNEMMKVVQVYADTQEINLKADSEVAQAGKAVALYFEDKLTEIYSDRTFA

Source: paper PMC3582033 (Cell, 2011)
